Assay: soluble fraction after stress (log2 fold change); higher = more stays soluble; pooled small domains, quantitative proteomics
Details: stress: pH 4
How it was run: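 Small protein domains from pooled custom libraries were exposed to pH 4, then quantified with high-throughput quantitative proteomics. The fold change in how much of each domain remains soluble is read as aggregation propensity. It is given as log2, with higher values meaning more stayed soluble.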

| Sequence | soluble fraction (log2) |
| --- | --- |
| HMSLIDLLQLNRKSKKLTLMNLVEMTGLSYGKVYRIFNGGIDKPTPDSLKLLAKALQLDYSYLFHKAGYL | 0.266 |
| HMSLIEQKSQIPLVQGGQRVDKVAAALFTDFSRAELTGWIQQGALTLDGAVVKPKYKVLGGEWLYLRASQS | -0.213 |
| HMSLNIIEITAKKEINELKSFNIIYFNFDKNNSIYEYKISEREKKEILEIEKIIKNSDNVTNYEIRYSF | -0.685 |
| HMSLNQRIKEARIKMGYTQEQLGNLIGVAKTTISGYEKNREPDAATIGLIIDALKVDANFLFQ | -1.2 |
| HMSLNSELIARIENLIASIEDKRSWGYGFAESVLGQVQAGATLSPRQLEIIAKLEKENSYSVQLERQ | -0.479 |
| HMSLPALSAEEQKIVDALHGTPKGVDDIIAETGISSGALLRSLTMLELKKVIVRLPGNRIAPK | 0.113 |
| HMSLPDREVVLETSSDSYYHFKTDHFQRQITYSAVRNAPVRLVTISAERAFEVISLNRRGERPEHLE | -1.77 |
| HMSLQEISDLISQAERADQEQLKEVLKQLHQVESGNQPMSKGFLSSALSTLNKYPALITSIGQLLFKLAT | -0.723 |
| HMSLSEGVSADVVADVQARLMELGYMDEDDPDGNFSESTRIAVEHFQQQAGLPVTGTVDKATLDALNSPD | -0.231 |
| HMSLSQLGLTPRQTDVLALLLKGQPNKLIARELGLSVETVKDHVAAVLRALNVSSRTQAVIAVSQMLQ | -0.533 |
| HMSLSVEESYKLLDISPSAGDEEITKKFRLLALKYHPDKNRSKIEWANNIMSRLNQAYSVIMSSRFESNAE | 0.211 |
| HMSLTTKSVEETLGITRQTLHNWIKEGLLPAPKKDFRNWYIWSDEDLENLRNIIEQKTLINNKKQAV | -0.0603 |
| HMSMANKKDFILDTAQKLFMEQGFDQTSISQILEATQIARGTLYYYFSSKEEIMDAIIERTIEQ | -1.81 |
| HMSMDYYNILGVNRNASTGEIKKAYKRASMQHHPDRGGNSDEFIKVQQAYDTLSDNHKRQAYDNP | 0.0506 |
| HMSMDYYSTLGVSKTASASDIKKAYRKLAMANHPDKGGDSAKFAKITEAYDVLKDPQKRNNYDQFGTA | 0.399 |
| HMSMEQAKAEEIEKLGDNAPERLQAAALFAEKFFPQDVMDAVYKITETADGVRAIEHIMQTVK | -0.37 |
| HMSMISLPNFVGKDIETVKAWAKENGITLIINKVEDSAKKDTVISQNPTNSDYSKILKGSAFTVNIAKE | 0.126 |
| HMSMRILNHTVVKILKRYRIATDEQLQPLLDEAERSGRSLQDVVLDAKLVSETELTKLFADYAD | 0.421 |
| HMSMVGNIEKILVTGESKKSSELLAGRTENNRVVNFTGEKVLIGSMVNVRIEEVFPNSLGGSYLPS | 0.0322 |
| HMSNAIDDAVEKVISENLDLAKERGLQSMGPLMGLVMKELGGTADGKAVSEALRRKISEISD | 0.114 |
| HMSNEDAYIKLRNGFLATLSEADLLLFTLREEGKTQKEIADQLGYKTHSAVSKRLQTMRGQFEGYLKTQ | -0.818 |
| HMSNEIIFNQKSITRFLMNPENNSPMIYPLELGHEMKVIKKNNDWLNVTDEKTGLNGWVISDDFGLTKPEG | -0.133 |
| HMSNETLFEFFEKNISQLTPTLVDNINRSLAVHSKKNVKLAIMIAAKSNVRNWNYISAILNRWEKE | -1.21 |
| HMSNIAQRLVLENALAKLNQEQQTIIDLRIIKGYSVAETARLLGKTESAVRTAQYRALKELAGILEED | -0.0342 |
| HMSNIIIYPNPTNDGLIHIKGSKFPFNYALYNLSGKLIETGKKNQIQLNDRGVYLLKIQTEGQTYFKKII | -0.754 |

| Sequence | soluble fraction (log2) |
| --- | --- |
| HMSNNILEISSNKKNMKIQENKNLVESYYSKTENLYSFKLVFKNKRDLDQFLKEVYEDDSTINYKTSS | -0.524 |
| HMSNPPLPFLAKTKVSWTGEQDGDLGFLENEVVKVFHVVDELWWQGSLSRNGAEGIFPRDFVEVISAP | -1.27 |
| HMSNSWSYSEFMKAVESGQVESVTISGQSIKGTSRGGQAFESVLPAFDDKLMDTLLVNDVEVIGEKP | -0.149 |
| HMSNTGDIIRKLREESGVTAKELAHRIGLSASQMSRLESGKRRINSEVLTRIARALEVAPSQLID | 0.17 |
| HMSNTIFGINGPVVTVASKDFSMQEMVYVGNERLVGEVISIDDDLTTIQVYEVTTGLKPGEPVVGTGSAM | -1.64 |
| HMSNVDYSQFKKDTVVEHTKFGRGIIIQTSGDGEDKIAAIAFKGLGVKRFSLAIAAASLKIIGKNDE | 0.194 |
| HMSNYFIEISKDSLARINDEIELDVLRETSDTIIISQEEKTNTISSFIKVLFERQIDILSIQNR | -1.25 |
| HMSNYYNILGVNKSSTQDEIKKAFRKKAVEHHPDKGGNEATFKKINEAYNTLSDNNKRHMYDMQQSG | 0.267 |
| HMSPDALSNLPIGSEIKFTLWDGTEKRLVKHPAAYQFSRPFWMNLNEYTYVPVNRIPKNYEVIRL | -0.0954 |
| HMSPEVEEISIDHLKAGMRILSDLRLPNGTLVAPKGSVVDAHFIKIVENYVISYFGNPFPDRIKVIM | 0.144 |
| HMSPEWTPAEQDAIDKASEGEYGEALQRVLSGDYEPMDIPDALWGVQQVADKDTYSSIQKKIADIGN | 0.422 |
| HMSPIPLPVERAIHKLGSDISLARRRRHISQASLAERMGASLSTVRRMEKGDVRVPIHFFARALHVFG | 0.158 |
| HMSPIQLKYNEYLIYIDEGKINTAEIHGNKITGKLKEGSEYVVTIYPELIASITEKLAENNVQTQLIQ | -0.466 |
| HMSPLPDRESLGAIEKLISLLGSSEWTVREKATRELGAFGYLARPVLQRELATSGDPEVSRRLERILSNL | -0.00724 |
| HMSPLTPEEAEVLRILGDHGDMTVDNIATEGKMSAAAVLRVLGVLSAYGLAVPSGPGRWGSRAA | 0.152 |
| HMSPPPRPSHPEAAGLRHLAFEVDNIDDAVRHLDRLGVPHEPVRTDEYTGRRFLFFTDPDRLPLELYEK | -0.572 |
| HMSPQIDYFDDEELDVYRQIAPEAYTDEQIEVFRDILYTLRPEEVEEWLISLEKREINLPLILRQEAIELI | 0.156 |
| HMSPRQVTAVRSGSPMPVLPGEDWRLYDASGALVARGSGAAPIPKSTGLLRLNSEGLDGLADRWIWVL | -0.154 |
| HMSPSRRENLTAAAKEYFVNTQIRHKTFGNGVIIKRSGNIAAIRFDNGTIKQIDLIAALQAKVLSIL | -0.512 |
| HMSPSTNKTFSFSKENISIGQTVFIKKLNQNATVLTLPNKSNQLQVQFGVITMNVKLEDLALPTN | -0.0832 |
| HMSPTSSRAAQARIRKMIESESPLKPISDSQLAARLGEEGISIARRTVAKYREQMNILPASQRRGV | -0.0284 |
| HMSPVPRIEIELTSSKEDGSWTWRAVGAREPRGSLDGALLAKPAAVGDVLRVETDQFLDGMTVTAILPPRD | -0.6 |
| HMSQAVEISSVKTQIDGKSYYLHTIKQGQTLYGISKAYGVSVEELTTVNPETSKGLKVGQIIKVPDTKT | -0.303 |
| HMSQDLVVLGDSMLNNALKAFHIDPNAIKKKYWDKLILDYHLKSKEEVLTEIALGKKINVMVAHQLTSIMD | -0.238 |
| HMSQEILSNQSIKDMIELGFEEQTIIDKIQTSTSDFDTTIEELKALKQLGASPTILSAMIKSIKK | -1.97 |

| Sequence | soluble fraction (log2) |
| --- | --- |
| HMSQLDITEARIVVSGGLGMQGPENFKLLEELAKVLGGAVGASRPVVDNGWREYSNQVGQTGKIVAPELYV | -0.751 |
| HMSQLETEEAKRIVLKDLLRLYNNYNIIELEEDEFDRFITYLNMPYDFLQKTSDYDLAVSIKRMYASY | -1.79 |
| HMSQNISSTKLIPENIKIGMSVFVIPLQQKGIVQSLPNRSKEVLVQIGNAKINVKINNLKLIED | -0.238 |
| HMSQNTHTIPSREDILGIFRSVNAPLDPQSLGKTLQVHADSMDVLVRRLKAMERDGQLKSDASGVFSLAD | 0.314 |
| HMSQNVQDVFLNHVRKSKNPVTVFLVNGVKLQGIITWFDNFSVLLRREGHTQLVYKHAISTVMPSGPIQLF | 0.22 |
| HMSQPALSYAFAKAQGVIVTALGDVAEVARRKGSQPQALAEVRRIAGRPLALREVDDAAFDRLLQDHYARS | -0.0203 |
| HMSQQMSYSDFVKAVSARQIREAQIQGDKIYATDSTGNRLTIIRLDNDQRLVDDMINNDVNIIGLEE | -0.534 |
| HMSQSDLASAIGARVTIRLREASGGFRDIVGVLQRFGSGYGELINSKGEALTFSESEIAIWREVKA | 0.361 |
| HMSQTELIIVEEEMDGERLDAFLAEQVEQLSRSAVKNLINEGQVLVNGAKQKASYHVREGDEISIEIPEPQ | -0.455 |
| HMSQTPDLQQERANLGDNADARIEAVDLWANKFFPEEHADAILQIGQTAKGIEALEFIMSKV | -0.345 |
| HMSQVLVRINQDLNIRSGPGAQYDIIAVYRSGAIASVIGTYNNWYKVNFELDSKSYTGWINGTFTSR | -0.245 |
| HMSQYELEDVEKQRLKFKNGDEKALWLLSDIYKDNSQSYEVRLAALRALSESRHPLIIFDIQSSVK | -0.898 |
| HMSRAAQRLFMSQPPLSRHIRQLEDRLGVTLFVRHTRGLTLTEDGQRVLEMVRPLLDLQDKTYAALSQLT | ≥ 0.43 |
| HMSREMIKSELESISGLGKSGIEKLYTHFINIENIKSASLENIRNIPGISYKVADNIYKHFH | 0.385 |
| HMSRLGINTTIEDIKMVGKIIMPLLKQGQSVYQILASHPEIPYSEKTLYSYIEDNIFKDAGIDISVFDL | -0.491 |
| HMSRLLERARDLMAKPGAWLSAEGGAYALRLSPDRRSRISLTLTETEFRALIDQPGLRVRPGGGWSGRA | -0.484 |
| HMSRMGDSIKSLRSRNNMSQDALAEKLNVTRQAISNWENSKTQPDADTLKNLGIIFNVTVDEIINNDF | -0.587 |
| HMSRQREWIYDYIQSHPDRHMSVEEIYEGLKAENREVSVATVYRNLKILQDENRIASLMLESGKQVFDK | -0.0969 |
| HMSRREEALIALAQRVARQVARTKQPVTLEPMPANERRVIHVALRDNPDVETRSSGEGDQRRVTVYPRQ | 0.202 |
| HMSRRIEIELTSSRPDGSWTWRAAGAREPKGVLDGTLLSQGSKPGDVVKAEAEFDIDGITIVSITQ | 0.0267 |
| HMSRSKLNRLDKIKKMLIAQTGISIKEFSASLNVSEITIRRDLNLLEEQGFIRLVNGVAIYRM | -0.315 |
| HMSRSLEIDVLVKALLEQDRRKFMLVTDGTADVTVRYNNALPSLFREGQGVVAEGLMDNGKFIATNVLAK | -0.793 |
| HMSRSLLAALEKLRESHTGSLPASVLSSAQRRSLESFAQTTKSVQMRPSGRGVVFAIINPEVVDKHWRELS | 0.22 |
| HMSRSSQMVNFIRLLSQEKKVSVNSIFSSSVQLSDGIIVKINDFYYRVNLSLDQKTYSLVEVS | 0.12 |
| HMSRVKQERLNRFVEAFEAYFRSVHPGEIDVEYLKSDEFGDIFESILHRVMHTASEEKMHRFKKILLNEM | -1.39 |
